According to patent US20240294623A1:

Target: antigen of FIG. 44 (not named)
Experiment: SPR (Biacore), Fab, FIG. 44

B1: Ab46 Fab (Fab, V domains shown)
VH: EVQLLESGGGLVQPGGSLRLSCAASGFTFADYAMTWVRQAPGKGLEWVSAISGSGAATYFADSVKGRFTISRDNSKNTLYLQMNSLRAEDTAVYYCARVSSGHWDYDYWGQGTLVTVSS
VL: DIQLTQSPSSLSASVGDRVTITCRASQSISSYLNWYQQKPGKAPKLLIYAASGLESGVPSRFSGSGSGTDFTLTISSLQPEDFATYYCQQTYGVPLTFGGGTKVEIK
  fold longer bound than the reference antibody: > 50 fold
  t1/2: > 2.17 h
